# In patent US20100184663A1:
# What was measured:
# [1] = molecular target: HIV-1 gp41 (HXB2 strain) (HIV-1 HXB2) (UniProt P04578); experiment: cell-based or functional assay
# [2] = molecular target: HIV-1 gp41 (JRFL strain) (HIV-1 JRFL); experiment: cell-based or functional assay
substance,measurement,setting,value
Fuzeon (from UniProt P04578 638-673) (peptide),"IC50 (HXB2), pseudovirion entry",[1],3.7 nM
same,"IC50 (HXB2), single-cycle viral infectivity assay",[1],3.7 nM
same,"IC50 (JRFL), pseudovirion entry",[2],5 nM
